Here are results for one variant from IntAct's records for PubMed 14638859.

Sequences and labels used below:
B1: ADP-ribosylation factor-binding protein GGA1 (Homo sapiens), Q9UJY5 (parent)
chain: MEPAMEPETLEARINRATNPLNKELDWASINGFCEQLNEDFEGPPLATRLLAHKIQSPQEWEAIQALTVLETCMKSCGKRFHDEVGKFRFLNELIKVVSPKYLGSRTSEKVKNKILELLYSWTVGLPEEVKIAEAYQMLKKQGIVKSDPKLPDDTTFPLPPPRPKNVIFEDEEKSKMLARLLKSSHPEDLRAANKLIKEMVQEDQKRMEKISKRVNAIEEVNNNVKLLTEMVMSHSQGGAAAGSSEDLMKELYQRCERMRPTLFRLASDTEDNDEALAEILQANDNLTQVINLYKQLVRGEEVNGDATAGSIPGSTSALLDLSGLDLPPAGTTYPAMPTRPGEQASPEQPSASVSLLDDELMSLGLSDPTPPSGPSLDGTGWNSFQSSDATEPPAPALAQAPSMESRPPAQTSLPASSGLDDLDLLGKTLLQQSLPPESQQVRWEKQQPTPRLTLRDLQNKSSSCSSPSSSATSLLHTVSPEPPRPPQQPVPTELSLASITVPLESIKPSNILPVTVYDQHGFRILFHFARDPLPGRSDVLVVVVSMLSTAPQPIRNIVFQSAVPKVMKVKLQPPSGTELPAFNPIVHPSAITQVLLLANPQKEKVRLRYKLTFTMGDQTYNEMGDVDQFPPPETWGSL
partner: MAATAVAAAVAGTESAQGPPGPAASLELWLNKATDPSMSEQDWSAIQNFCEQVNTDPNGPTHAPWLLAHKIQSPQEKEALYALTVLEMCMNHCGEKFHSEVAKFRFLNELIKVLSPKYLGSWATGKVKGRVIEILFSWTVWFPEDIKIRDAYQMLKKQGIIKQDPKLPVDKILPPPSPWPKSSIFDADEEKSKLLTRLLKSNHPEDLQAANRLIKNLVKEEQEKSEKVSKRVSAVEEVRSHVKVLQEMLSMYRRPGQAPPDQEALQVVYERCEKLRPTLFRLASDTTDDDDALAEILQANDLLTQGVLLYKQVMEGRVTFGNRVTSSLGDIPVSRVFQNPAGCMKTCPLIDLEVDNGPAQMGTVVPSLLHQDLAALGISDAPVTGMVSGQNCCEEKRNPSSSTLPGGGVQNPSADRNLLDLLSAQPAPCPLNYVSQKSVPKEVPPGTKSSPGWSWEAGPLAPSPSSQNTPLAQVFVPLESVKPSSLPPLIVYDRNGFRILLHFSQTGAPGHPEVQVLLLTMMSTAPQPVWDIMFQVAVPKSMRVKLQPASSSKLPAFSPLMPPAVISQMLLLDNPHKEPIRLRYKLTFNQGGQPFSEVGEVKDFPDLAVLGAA

The variants in the assay derive from B1. The following applies: with gga2_human GGA2, Q9UJY4.
As to D358A, the “effect of a mutation on the interaction” value was “with no effect”.
